Test: yeast display, Sf9 membrane polyspecificity reagent, FACS + sequencing; frameworks hold sequencing errors
Outline: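 Galactose induction of a Saccharomyces cerevisiae BJ5465 synthetic nanobody display library ran 36–48 hours. The cells were then stained for 1 hour at 4 °C with 10% biotinylated, detergent-solubilized Sf9 membrane reagent, pulled down on streptavidin microbeads and FACS-sorted into low and high (top ~1%) gates on expression and reagent-binding fluorescence. Labels for polyreactivity follow the gate of origin.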

Row | Sequence | polyreactivity (PSR sort gate)
1 | QVQLVESGGGLVQAGGSLRLSCAASGITFTIYAMGCNRQAPGKERELVAAITWTSDITHYADSVKGRVTISRDNAKNTDYLQMNSLKPEDTAVYYCGATTWDEYDYWGQGTQVTVSW | high polyreactivity
2 | QVQLVESGGGLVQAGGSLRLSCAASGTTYYNAMGWYRQAPGKERELVAAIRFRSGSTYYADSVKGRFTISRDNAKNTVFLQMNSLKPEDTAVYYCNIVPYRGYRRYGYWGQGTHVTVSS | high polyreactivity
3 | QVQLVESGGGLVEAGGSLRLSCAATGRTIRAYAMGWYRPEPGKERELVASISSGGSTKYADSVKGRFTISRDNAKNTVYLQMNSLKPEDTAVYFCAADRLLYGVDYWGQGTEVTVSS | low polyreactivity
4 | QVQLVESGGGLVQAGGSLRLSCPASGRIFGYNSMGWYRQAPGKEREMVATMSSGGGSNYADSVKGRFTISRDNAKNTVYLQMKSLKPEDTAVFYCAADLFLDGSSLYAPNWWPDGWNTYRVLGGYWGQGTQVTVSS | low polyreactivity
5 | QVQIVESGGGLVQAGGSLRLRCAASGRTFRDNAMGWSRQAPGKERELVAAIDIDSSTYYADSVKGRFTISRDNAKNTVYLQMISLKPEDTAVYYCAAESYHDGIGFPDYEYWGQGTQVTVSS | low polyreactivity
6 | QVQLVESGGGLVQAGGSLRLSCAAYGLTFYFYAMGWYRQAPGKERELVAAIDWGGGSTYYADSVKGRFTISRDNAKNTVYLQMNSLKPEDTAVYYCAARGYYYNYDVNYWGQGTQVTVSS | low polyreactivity
7 | QVQLVESGGGLVQAGGSLRLSCAASGNIFESYGMGWYRQAPGKERELVATINTSSGSTYYADSVKGRFTISRDNAKNTVYLQMNSLKPEDTAVSSCAGEWYPYAWGYGYWGQGTQVTVSS | low polyreactivity
8 | QFHLVETGGGLVQAGGSLRLSCAASGSTFSDYAMGSYRQAPGKERELVAGITETGTTTYYADSVNGRFTISRDNAKNTDYLQINSLKPEDTAVYYCAAFLVTYYYGTGYYSYDYWGQGTQVTVSS | low polyreactivity
9 | QVQLVESGGGLVQAGGSLRLSCAASGYTFFRYAMGWYRQAPGKERELVAAISGGGGSTYYADSVKGRFTISRDYAKNTVYLQMNSLKPEDTAVYYCAAESQAYSLYWGQGTQVTVSS | high polyreactivity
10 | QVQLEESGGGLVQAGGSLRLTCAGSGSISYRYDMGWYRQATGKEMELVAVITGSGGSTYYADSVKGRFTISRDNAKNTVYLQMNSLKPEDTAVYYCANEPGENWTVSWRDFDFWGQGTQVTVSS | low polyreactivity
11 | QDQLVESCGGLVQAGGSLRISCAASGRIFLPTAMGGYRQAPGKERELVAAINSSDASTDFADSVQGRFTISRDHAKTTVYLQRNSLKPEDTAVYYCAAENDTSDAVRYDYWGQGTQVTVSS | low polyreactivity
12 | QVQLVESGGGLVQAGGSLRFSCAASGSTISSNVMGWYRQAPGKERELVAAITKTGGRTYYADSVKGRFTISRDNAKNTVYLQMNSLKPEDTAFYYCAAKSKPRGTSSDYYYWGQGTQVTVSS | high polyreactivity
13 | QLQLVESGRGLVQAGGSLRLSCAGSGFIVGYNAMGSYRQAPGKDRELVAAISSGGSTYYADSVKGRFTISRVNAKNTVYLQMNSLKPEDTAVYYCAVELGYPIQSYALWWDFEYWGQGTQVTVSS | low polyreactivity
14 | QVQLVESGGGLVQAGGSLRLTCSASGFIFRYYAKGWSRQAPGKERELVAAISTSGGSTYYADSVKGRFTISRDIAKNTVYLQMNSLKPEDTAVYYCAASTNTDRDFWGQGTQVTVSS | high polyreactivity
15 | QVQLVESGGWLDQAGGSLRLSCAASGRTLGYYAMGWYRQAPGKERELVASIRYSGGSTYADSVKGRFTISRDNAKNTVYLQMNSLKPEDTAVYYCATGDSFRCYSALSRYDYWGQGTQVTVSS | high polyreactivity
16 | QVQLVESGGGLVQAGGSLSLSCAASGSIFYSNSMGWYRQAPGKERELVAAINWRGGSTYYADSVKGRFTISRDNAKNSVYLQMNSLKPEDTAVDYCAAVYPVHLRGQYPIPKYNYWGQGTQVTVSS | low polyreactivity
17 | QVQLVESGGGLVQAGGSHRLSCAASGSIFHRYAMGWYRQAPGKERELVAGITWSGDSTYYADSVKGRFTISRDNAKNTVYLEMNSLKPEDTGVYYCAKRAPRHYKGVPAAWFGYWGQGTQVTVSS | low polyreactivity
18 | QVQIVESCGGLVQAGGSHRLSCAASGSTFVPNAMGWYRQAPGKEREFVAAISRIGGTYYADSVKGRFTISRDNEKNTVYLLMNCLKPEDNAVYYCAAEPSSVGYHVEYDYWGQGTQVTVSS | low polyreactivity
19 | QVQLVESAGGLVQAGGSLRLSCAASGRIFYGNAMGWYRQAPGKERELVAAISKRGGSTHYAASVKGRFTISRDNAKNTVYLQMNSLKPEDTAVYYCATDSYYVGAVHYYYWGQGTQVTVSS | high polyreactivity
20 | QVQLEESGGGLVQAGGRLRLSCAASGSIFGFYAMGWYRQAPGKERELVASITISGGSTYYADSVKGRFTISRDNAKNTVYLQMNSLKPEDTAVYYGAARRYWDYNYWGQGTQVTVSS | low polyreactivity
21 | QVQLVESGGGLVQAGGSLRVSCAASGRTFRPNAMGWYRQAPGKERELVAAISGGGGSTYYADSVKGRFTISRDIAKNTVYLLMNSLKPEVTAVYYCNKVEQGRYGYWGQGTQVTVSS | high polyreactivity
22 | QVQLVESGGGLVQAGGSLRLSCADSGRIFFDYAMGWYRQAPGKERELVAAISYRGGDTYYADSVKGRFTISRDNAKNTVYLQMNSLIPEDTAVYYCAATGGYYEYWGQGTQVTVSS | low polyreactivity

Row | Sequence | polyreactivity (PSR sort gate)
23 | QVQLVESGGGLVQAGGSLRLSCAASGRIFPTYAMGWYRQAPGKERELVASITSGVDTYYADSVKGRFTISRDNAKNTVYLQMNSLKPEDTAVYYCAARFFVWWKYDYWGQGTQVTVSS | low polyreactivity
24 | QVQLVESGGGLVQAGGSLRLSCAASGFTFSVNDMGWYRQAPGKERELVAGISRGDNTNYADSVKGRFTISRDNAKNTVYLQMNSLKPEDTAVYYCAADFSLGLYRSWFGDYDYWGQGTQVTVSS | low polyreactivity
25 | QVQLVESGGGLVQAGCSLRLSCAASGRIFYLYTLGWYRQAPGKERELVAAITRAGRTYYADSVKGRFTISRDNAKNTFYLQMNSLKPEDTGVYYCAAAFLSRVQGYDSWGQGTQVTVSS | high polyreactivity
26 | QVQLVESGGGLVQAGGSLRLSCAASGGIFRGYTMGWYRQAPGKERELVAAISKGGGSTYYADSVKGRFTISRDIAKNTVYLQMNSLKPEDTAVYYCAARHVYPLLDYWGQGTQVTVSS | high polyreactivity
27 | QFQLVESGGGLVQAGGSLRLSCAASGSIIGPYAMGWYRQAPVKERELVAVISSGDSKNYADSVKGRFTISRDNAKNTVYLQMNSLKQEDNEVSYCRCKYDVAHHFWVYRYDYWGHGTQVTVSS | low polyreactivity
28 | QVQLVESGGGLVLAGGSLRLSCAASGFTFRKNAMGWYRQARGKERELVAAINSSGGSTYYADSVKGRFTISRDNAKNTVYLQMNSLKPEDTAVFYCNAVGRSLARPRGDYWGQGTQVTVSS | high polyreactivity
29 | QVQLVESGGGLVQAGGSLRLSCAASGFIFVNYAMGWYRQAPGKERELVAAISRNGGRTYYADSVKGRFTISRDNAKNTVYCQMNSLTPEDTAVYYCTAELSGKRDYWGQGTQVTVSS | high polyreactivity
30 | QVQLVESGGGIVQAGGSLRLSCAASGRIFVRNAMVWYRQAPGKERELVAAISTNGGSTRYADSVKGRFTISRDNAKNTVYLQMNSLKPEDTAVYYCNAYYSHSPRYLKYDYWGLGTQVTVSS | high polyreactivity
31 | QVQLVESGGGLVQAGGSLRLSCASSGLILFYNAMGWYRQAPGKERELVATIRRGGTTYYADSVKGRFTISRDNAKNTVYLQMNSLKPEDTAVYYCAKESLYQYDYWGQGTQVTVSS | low polyreactivity
32 | QVQLVESGGGLVQAGGSLRLSCAASGSTFDQYGMGWYRQAPGKERELVAAITSVGGTNYADSVKGRFTISRDNAKNTVYLKMNSLKPEDTAVYYCAAGSVSQYDSWGQGTQVTVSS | low polyreactivity
33 | QVQLVESGGGLGQAGGSLRLSCAASGIIFYPNAMGWYRQAPGKERELVAAISCRSGSTYYADSVKGRITISRDNEKNTVYLQMNSLKPEDTSVYYCAADRRRSYIWRYDYWGQGTQVTVSS | low polyreactivity
34 | QVQLVESGGGLVQAGGSLRLSCAASGVIFWEYAMGWYRQAPGKERELVAAISTSGGSTYYADSVKGRFTISRDNAKNTVYLQMISLKPEDTAVYYCAVDGWDDTYFRQDMDYWGQGTQVTVSS | low polyreactivity
35 | QVQLVESGGGLVQAGGSLRLSCAASGSIFAKNAMGWYRQAPGKERELVAGIDFSGGSTYSADSVKGRFTISRDNAQNTVYLQMNSLKPEDTAVDYCAADWAYKYELDYWGQGTQVTVSS | low polyreactivity
36 | QVQLVESGGGLVQAGGSLRLSCAASGSTFRYNAMGWYRQAPGKERELVAAITSGGRTTYADSVKGRFTISRDNAKNPVYLQMNSLKPEDTAVYYCAARRYGRNWHYDYWGHGTQVTVSS | high polyreactivity
37 | QVQLVESGGGLVQAGGSLRLSCAASGFIFDYYAMGWYRQAPGKERELVAAITSRSGSTYYADSVKGRFTISRDNAKNTVYLQMNSLKPEDTAVYYCAAVYPDYSSARYDYWGQGTQVTVSS | high polyreactivity
38 | QVQLVESGGGLVQAGGSLRLSCAASGFTFQYYAMGWYRQAPGKERELVAAISWSGASTYYADSVKGRFTISRDNAKNTVYLQMNSLKPEDTAVYYSAAKYYRDRDWGQGTQVTVSS | high polyreactivity
39 | QVQLVESGGGLVQAGGSLRLSCAASGRIFKGNAMGWYRQAPGKERELVAAISRNGGSTYYADSVKGRFTISRDNAKNTVSLLMNSLKPEDTAVYYCAAYGYRYTEGGWWRMDYWGQGTEVTVSS | high polyreactivity
40 | QVQLVESGGGLVQAGGSLRLSCAASGSIFNQYAMGWYRQAPGKERELVAAISSGSTYYADSVKGRFIISRDNAETTVYLQMYSLKPEDTAVYYCNAYYVNYVSNYESWGQGTQVTVSS | high polyreactivity
41 | QVQLVESGGGLVQAGGSLRLSCAASGRIFRKNVMGWYRQAPGKERELVATIRTGGTTNYADSVKGRFTISRDNAKNTVYLQMNSLKPEDTAVYYCAADRGGRAGFDYWGQGTQVTVSS | high polyreactivity
42 | QVQLVESGGGLDQSGGSLSLSCAASGSNFRLNAMGWSRQAPGKETELVAAISYRGGSTNYADSVKGRFTISRDNAKNTVYLQMNILKPEDTAVYYCAANIYRSSGQCMDYWGQGTEVTVSS | low polyreactivity
43 | QVQLVESGGGLVQAGGSIRLSCAASGYILGRYAMGWYRQAPGKERELVAAITSGGSTYYADSVKGRFTISRDNAKNSVSLQMNSLKPEDTAVYYCAAYTRYWSYGYWGQGTQVTVSS | high polyreactivity
